Test results published in publication doi:10.1101/2025.10.08.681084.

Target: recombinant Nrf2-6×his (human) (UniProt Q16236)
Test: pull-down

UniProt Q16236, sequence (Q16236 whole entry): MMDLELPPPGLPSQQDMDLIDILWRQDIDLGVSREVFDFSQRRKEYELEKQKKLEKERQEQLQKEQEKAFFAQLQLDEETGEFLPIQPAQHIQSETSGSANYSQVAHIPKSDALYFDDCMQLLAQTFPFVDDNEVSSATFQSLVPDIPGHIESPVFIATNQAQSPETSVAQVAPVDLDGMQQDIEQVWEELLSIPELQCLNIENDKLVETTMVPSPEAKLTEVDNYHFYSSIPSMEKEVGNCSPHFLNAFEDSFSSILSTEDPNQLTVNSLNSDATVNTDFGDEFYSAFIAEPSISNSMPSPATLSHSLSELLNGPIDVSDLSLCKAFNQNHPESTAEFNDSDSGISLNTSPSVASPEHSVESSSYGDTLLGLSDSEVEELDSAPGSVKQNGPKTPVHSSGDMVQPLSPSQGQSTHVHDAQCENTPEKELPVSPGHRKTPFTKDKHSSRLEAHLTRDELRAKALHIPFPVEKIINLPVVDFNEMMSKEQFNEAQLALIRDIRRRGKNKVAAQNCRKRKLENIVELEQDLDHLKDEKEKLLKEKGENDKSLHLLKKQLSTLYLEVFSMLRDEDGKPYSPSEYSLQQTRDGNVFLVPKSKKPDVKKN

recombinant K13 (TrK13-WT) (domain or fragment)
percent reduction of binding of heme-bound TrK13-WT against heme-free TrK13-WT: 26%
